Assay results as given in EP4782465A1 (Shanghai Mabgen Biotech Ltd., dated 2026).

Molecular target: Insulin receptor of C2C12 mouse myoblasts (mouse, UniProt P15208 28-1372)
Experiment: cell-based or functional assay

Chain of Insulin receptor of C2C12 mouse myoblasts (P15208 28-1372): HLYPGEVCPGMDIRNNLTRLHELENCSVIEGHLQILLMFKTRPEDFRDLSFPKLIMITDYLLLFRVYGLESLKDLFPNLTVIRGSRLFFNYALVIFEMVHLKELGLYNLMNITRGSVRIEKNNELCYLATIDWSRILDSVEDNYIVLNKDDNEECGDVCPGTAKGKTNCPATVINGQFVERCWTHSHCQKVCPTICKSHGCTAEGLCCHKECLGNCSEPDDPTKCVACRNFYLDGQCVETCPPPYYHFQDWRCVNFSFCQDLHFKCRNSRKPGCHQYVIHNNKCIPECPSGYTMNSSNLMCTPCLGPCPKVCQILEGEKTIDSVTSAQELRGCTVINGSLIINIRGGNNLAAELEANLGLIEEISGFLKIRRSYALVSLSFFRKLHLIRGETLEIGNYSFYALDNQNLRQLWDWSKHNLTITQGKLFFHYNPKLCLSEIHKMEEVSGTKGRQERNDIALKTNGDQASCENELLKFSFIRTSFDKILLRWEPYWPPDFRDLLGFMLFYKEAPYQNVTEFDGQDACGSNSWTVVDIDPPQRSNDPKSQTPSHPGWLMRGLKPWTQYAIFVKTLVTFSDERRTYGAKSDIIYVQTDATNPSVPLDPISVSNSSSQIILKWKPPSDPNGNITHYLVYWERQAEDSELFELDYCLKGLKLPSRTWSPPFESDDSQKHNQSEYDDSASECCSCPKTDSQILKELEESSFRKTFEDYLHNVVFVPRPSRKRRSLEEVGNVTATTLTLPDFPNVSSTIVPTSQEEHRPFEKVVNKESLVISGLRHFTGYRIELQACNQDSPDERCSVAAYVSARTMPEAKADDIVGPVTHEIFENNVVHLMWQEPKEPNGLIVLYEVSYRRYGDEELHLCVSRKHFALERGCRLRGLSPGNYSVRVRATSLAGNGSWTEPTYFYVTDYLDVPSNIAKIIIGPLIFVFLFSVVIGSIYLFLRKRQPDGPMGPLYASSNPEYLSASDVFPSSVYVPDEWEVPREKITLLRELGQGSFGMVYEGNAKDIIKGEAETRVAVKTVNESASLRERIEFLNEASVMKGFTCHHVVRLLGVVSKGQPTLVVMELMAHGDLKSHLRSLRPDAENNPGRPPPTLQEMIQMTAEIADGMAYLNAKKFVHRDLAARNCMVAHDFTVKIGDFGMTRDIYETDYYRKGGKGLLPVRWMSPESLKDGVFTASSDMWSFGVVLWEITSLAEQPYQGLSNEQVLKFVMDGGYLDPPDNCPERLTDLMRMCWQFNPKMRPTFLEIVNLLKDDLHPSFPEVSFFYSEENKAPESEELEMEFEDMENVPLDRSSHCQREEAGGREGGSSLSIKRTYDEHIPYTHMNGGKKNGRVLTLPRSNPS

B1: Fusion protein 1 (insulin analog 1 + L2 + IgG2 Fc1) (Fc fusion)
chain: FVNQHLCGEHLVEALYLVCGERGFHYGGGGGGSGGGGGIVEQCCESICSLEQLENYCGGGGGQGGGGQGGGGQGGGGGECPPCPAPPVAGPSVFLFPPKPKDTLMISRTPEVTCVVVDVSHEDPEVQFNWYVDGVEVHNAKTKPREEQFNSTFRVVSVLTVVHQDWLNGKEYKCKVSNKGLPAPIEKTISKTKGQPREPQVYTLPPSREEMTKNQVSLTCLVKGFYPSDIAVEWESNGQPENNYKTTPPMLDSDGSFFLYSKLTVDKSRWQQGNVFSCSVMHEALHNHYTQKSLSLSPG
AKT phosphorylation activity (EC50): 490 nM
